# Assay results as given in a protein production outcome set (Wang et al. 2014).
# Assay: label from the status in PepcDB records
row,Sequence,protein production
1,MDEADSGGIVTARNVDLSSCDRELVQYPEAIQPHGAMLTVDEQSDRVLHASANCAAFIGKPPEAVIGAPIAAVLGAGWHELLGSLHRMPLDSGPVNIARESFLGSDQGWHLFAHRCGGLIILEFEKAEPEAAGTTSNLYSEVRADLAALQATEGVQAFFDLAVERIRAFTGYDRVMAYRFAEDGSGQVIAEARRDDLEPYLGLHYPATDIPAPARRLFALSWVRHLPDVGYTPVPLLAAKSPLVTGPVDMSFASLRSVSVMYTGYLKNMGVQSTLVMPLVKEGRLWGLISAMHHAAPRHISHQMRMAAEFLAHTLSLLMSAKEDAEQFERSSARKAAAEALTRLLDSEADIGAALHAAGALDLLSALIDAGGVVVQTGDEVATRGEAPAAAPLHELTSWLRERARPVFATDRLPNLDPAAQAVASQASGVLALRPLPDQPMLIAWLRPEQIEDVQWAGDPRKPVEISDADGMQRLRPRNSFALWKESVQGRAVPWRDDEKDAATRLAAAIAEIAAARKGRIERINRALDASHSELSRYTDVASAELKEHLRGIHHLTTSLRRRQGEVLDEEGRQQVATILKLTQRMDALVDALLDRSRGGSEAASETVDLEAVVDDALAPFARRIAEDRIEVRRPMRLGTAQGHREWIGEVFTNLIGNAIRYNDKPERWIEIGVEAGSPPRYYVRDNGIGIADTDQQLVFQMFHRVDQSEQKAEGAGVGLAMTRRIVAHHGGRIWVQSRLGEGATFYFTLAPDEERHDA,failed
2,MDEIDLRILKILQYNAKYSLDEIAREIRIPKSTLSYRIKKLEKDGVIKGYYAYINPASLNLDYIVITSVKAKYGKNYHVELGNKLAQIPGVWGVYFVLGDNDFIVMARYKTREEFMEKFLERVMSIPEVERTSTQVVVKIIKESPNIVIF,not failed
3,MDEIESLIGLRPTPLTWPVVIAGDFLGVWDPPPSLPGAANHEISAPTARISCMLIERRDAAARLRRALHRAPVVLLTGPRQAGKTTLSRLVGKSAPECTFDAENPVDATRLADPMLALSGLSGLITIDEAQRIPDLFPVLRVLVDRPVMPARFLILGSASPDLVGLASESLAGRVELVELSGLTVRDVGSSAADRLWLRGGLPPSFTARSNEDSAAWRDGYITTFLERDLAQLGVRIPAATMRRAWTMLAHYHGQLFSGAELARSLDVAQTTARRYLDALTDALVVRQLTPWFANIGKRQRRSPKIYIRDTGLLHRLLGIDDRLALERNPKLGASWEGFVLEQLAALLAPNPLYYWRTQQDAELDLYVELSGRPYGFEIKRTSTPSISRSMRSALVDLQLARLAIVYPGEHRFPLSDTVVAVPADQILTTGSVDELLALLK,failed
4,MDEKPAITKIISGGQTGADRAALDFAIKHHIPYGGWVPKGRLAEGGRVPETYQLQEMPTSDYSKRTEKNVLDSDGTLIISHGILKGGSALTEFFAEQYKKPCLHIDLDRISIEDAATLINSWTVSHHIQVLNIAGPRAGKDPEIYQATMDLLEVFLA,not failed
5,MDELFAKAPIKKVYFKLALPVVLGMITTMIYNLADTMFVAKTSDTNLVAGITIGAPLFTFLIAVSDIFGLGGSSLISRLFGERNYQLSKRVSSFCMIGGFVTGLILTAILLIFENPILHLLGAKAATYQDAADFYRIISIGAAPIVFSIIPQNLIRTEGLATQAMIATMTGTILAIILDPIFLFVFKMGAIGVGIANITGYLVTDIILIYYVLCKTEYIKLKLKYTKISGKTIKDIVAIGIPGSITNFAQSFGMALLNSSLALYGANKVAAMGITQKIYSIVILVIVGFAFGSQPLIGYNYGAKNWKRLKKILNFDILVQVVYAVVSGGLLILFARPVTALFMNQPDIVNAGSYMLIATIITTPIVGIILVYTTVFQSVGNAWAAFIMAIARQGVVYFIALETLKNIFGYHGIVWAQAVSDVITCIIGYFIYEKSLDLKDKIKN,failed
6,MDERRAVVLVDELHLRKGGYEAEKVRVFAVRVSETLWAFKALWGSTPFTGTTFV,failed
7,MDEYAGRVLADRYRLPLPPSDEYELAETRAFDTYSGQEVLVRQVPLPEVVEAEVLDADGLPAGFVARDGGTRRASARTATRRPAEPAVRRAIEAAQAAAQIPDHPRLDQVFDVFAEGGSLWIVSELVAARPLAALLADKPLSPYRAAEVASDVLMALRVLHAHGWVHRNITVRTVLVCDDGRVMLTGLAAGAAEEALCGYDPVPVRDFEPRGDDGGDGTGGNGRGAVRGAAAGGTPGIGSGPGAGSGRPGIGAGSGGPVGAAGGAVGAAAGGMSVAEAEAARRAAIEARAGGVGPVAGTPGGEVPARGARALEGGGDARAQRAGAIAAYRAGARAAARVQEAQRGGRAALPAPRPADAEGRAPQSPGHGVEHLPGALPGQIADPYGVARTNSWPGGFPGDVGGANVGGAYGTPGNGSGTYENGSVPHAPADAPVSTPTPADAVPPTHWDHLVSGSSAPSGPSAASVPRRGPTTALAAERARQARMAVIGPVTERWAPEQAGPVHENWQLAAPIGPATDLWALGALLFRAVQGHAPYPEENTAELVQLVCAEPPAFAEECGPLRPVVESLLRQDPTERLDFEEVRGWLRSLVRSAPEPEAGAHVVAAPPVDPRRLPIVRRRGELVRRRRARLPATTPHARHKRAKDGRPPRPKRLGRNLVLLILLVLAAAVAYAMVFMPKASPNSDSGSRSDGDRTGAAGGVSPAPEQSGGGSEPRPDQTSPGSGKSPSGSSGSTREQTTDPDVAQGFTLRKDPEGFRVAVATGWDRAPKNGRGRIVYSHGDFELIVVPGRDSTADHGSDPLTYQRETESELQPFRDSTWATSSGMRRIDVGGRTMAEGQFTWTDGQGRELFVRNLAIVVGGRYHVVQLRGPEAERDEVTRLYEQASRTYQVTG,failed
8,MDFAFEKVARDWFVRWSKGRSEKYAGQVMRNFERWVFPAIGNLDIRQVRTADVVGCLRVMEARGIVDTLRKTKNSLKMVFAFAVGSGMMEINPVAQIGSGVFERLEHHHHHH,failed
9,MDFGLATTLYPDEYNYQTDAYSPTSSPVDLVQVIQQLHASLDPRTVFACYGKVLGQHLPIQGVRLQSEQHKLSWGKRYGISLKRQIICGGTPLTLQYQLLTPLTPSQSICLQEIEPLLLQPLLNAMQYQEMSMQAMFDALTGLGNRHYYSQSLKNAVARAQRKQGSVSLIVLDLDNFKKLNDKYGHKCGDYILKEFGDIIRSSIRSTDQAFRIGGDEFVVIVQGNIHAAGLLCERIVSATNTHASFHQFGVSCSLGAAEASETMEAEQLYEQADKTLYQAKASGRNCYKLSPTQLS,failed
10,MDFGTQGPQAPAELAWLRGVDAYTMGAYPQAEEEFRAAVRIDPTMADGWLGLHALRVDTTNALLRMFRNRDRFGEQRARHRRTLNSWYWLGWWVQPVLENPRDLLLAHASHWLDGRHVPELDRALAGLPPVDSDAQVRFLHACRAYLVKDWEQLVRHTDPLLGDPLLGIEAGLFSGMARVRLEMYGQAEPLLSAALMRCRSEQPQRKELRYWLARAHEGTGRSAAALPLYRAVHRVDPAFMDTSARLAAIAEGDGYDDPADLTGYAQAGAGTDGLDGLDPLFGTEERGVKVSAPEPALSAPLPPLGGPSVREKAGGPDPSLPSGPTDPALLEEALAELERMVGLEPVKRQVKALSAQLNMARLRAGQGLPVQPPKRHFVFSGPSGTGKTTVARILGRVFYALGLLGGDHLVEAQRADLVGEYLGQTAVKANELIDSALGGVLFVDEAYSLSNSGYGKGDAYGDEALQVLLKRAEDNRDHLVVILAGYPEGMDRLLGANPGLSSRFTTRVDFPSYRPLELTSIGEVLAAENGDVWDEEALDELRSIAGHVVDQGWIDELGNGRFLRTLYEKSCAYRDLRLSVYPGALTRDDLATLRLPDLMQAYGEVLSGRGPGGPSAG,failed
11,MDFHIRKATNSDAEAIQHVATTSWHHTYQDLIPSDVQDDFLKRFYNVETLHNRISATPFAVLEQADKVIGFANFIELEKGKSELAAFYLLPEVTQRGLGTELLEVGMTLFHVPLPMFVNVEKGNETAIHFYKAKGFVQVEEFTEDFYGYPLETIRFNLNH,not failed
12,MDFKQRHTWLKIASCKSISAKKRASIWQKLTEFDQYEMTTQTFAESFFPVDKLAQILMELETAEACFFDDVTLIWILDDAYPALLREIYEAPPILFCKGNIDLLQQQAIAIVGTRQMSEYGRKACMKIASELAENKLTIVSGMAIGIDSTAHRATLNKQGATIAVLGSGVNKVYPKKNELLAKEIVKEGLLLSEYLPDEEAKRWHFPERNRIISGLAIGTVIIEAAERSGSLITADIALEQNRQVFAVPGNIFIDTWQGTNYLIQEGAKLVMNSNNIIEEFIQIKP,failed
